Experimental data published in the supplement of paper PMC9170038.

System: MS2 coat protein
Experiment: apparent KD of MS2 coat protein; designed switch direction (-1 OFF switch, 1 ON switch): -1; higher = weaker reporter binding
Summary of the method: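 Three titration conditions were used: no input, 200 uM small-molecule ligand, and an oligonucleotide input. In each, SNAP-549-labelled MS2 coat protein was raised from 0.7 or 1.5 nM, doubling, to 3 µM over designed RNA switches transcribed on Illumina chips by stalled E. coli RNA polymerase. Curve fits of normalised cluster fluorescence gave values whose per-design median over clusters is the apparent KD.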

[1] = Eterna round: R95, input ligand: microRNA oligo, concentration not stated
[2] = input ligand: microRNA oligo, concentration not stated
[3] = Eterna round: R95, input ligand: FMN 200 uM
[4] = Eterna round: R95, input ligand: none

Sequence	apparent KD of MS2 coat protein [1] [nM]	apparent KD of MS2 coat protein (input ligand: FMN 200 uM) [nM]	apparent KD of MS2 coat protein (input ligand: none) [nM]	further results
CUCAUGUGAGGAUAUGUGAUCAACCUUCUGUAUAGAUGAUGACAGAAGGCACAUGAGGAUCACCCAUGUAGAUC [Ex4 - 3 - 18] (puzzle: Exclusion 4)	46.7	–	–	–
UUAUUAUAUGUAGGAUAUGCAUAUUGUUAUUAUGCAGAAGGACAUGAGGAUCACCCAUGUAUAUUAUUAUUAUAUAUUAUAUAU [Title] (Eterna round: R96, puzzle: Exclusion NG 1)	–	–	–	apparent KD of MS2 coat protein [2]: 23.3 nM
UAGUUACAUGAGGAUCACCCAUGUGAGGAUAUGAGUCAGUCACGGUGACGUGGCUGACUCAGAAGGCACAAUGG [Mat - Exclusion 1 - JL Mod - D45] (Eterna round: R97, puzzle: Exclusion 1)	–	77.4	256	–
AGUAACAGAGGAUAUACUGUUUUAUGUGUUUAUUAUUUUGAACAUGAGGAUCACCCAUGUAGAAGGCUGAAUAA [JMF 90] (puzzle: Exclusion 2)	21.8	–	–	–
AGGUCACAUGAGGAUCACCCAUGUCAGGAUAUCUACAUUGAAGCUUCGGCUUCAAUGUAGAGAAGGGACAAUUA [E1/6-B1] (Eterna round: R97, puzzle: Exclusion 1)	–	341	75.7	–
CUUCGACAUGAGGAUCACCCAUGUCAGGAUAUUGUGUAUCGGGUUUUUUACGGAAAGGCAAGAAGGGAUGUGUG [LRO-Excl1-07] (puzzle: Exclusion 1)	25.4	–	–	–
UAAUUACAUGAGGAUCACCCAUGUGAGGAUAUGUCCAUAUUCGGCAAAUCGGAUAUGGACAGAAGGCACACCGG [JR_Exclusion1_Sub009] (puzzle: Exclusion 1)	55.8	–	–	–
ACGCGUGGCUAGGAUAUCGAGGAAUCUAGCCAGCGAGAAGGAGCCACAUGAGGAUCACCCAUGUGGUGAUCCUC [jl-ex6-4.65 ViennaUCT mod] (Eterna round: R97, puzzle: Exclusion 6)	–	6.76	3.8	–
AAGUACCGUCACGAUAGUGAUGGUACAGCAAGCAAGUGAACAUGAGGAUCACCCAUGUCCUCAAUUGCUCGUCUUAU [Sensor 3 - 72] (puzzle: Sensor v3, turn-off variant 2)	55.5	–	–	apparent KD of MS2 coat protein [3]: 25 nM; apparent KD of MS2 coat protein [4]: 24.1 nM
GGAGGACGAGCAGGAUAUUUUUACAUGAGGAUCACCCAUGUGUACUCAGGGUAAUCCUCCGCCGAAAAGAAGGGUUCGGAAGAA [JL ViennaUCT Socedi mod 4] (Eterna round: R96, puzzle: Exclusion NG 2)	–	124	63.2	apparent KD of MS2 coat protein [2]: 41.6 nM
AAGUACCGUCACGAUAGUGAUGGUACAACAGGCAAAUGUACAUGAGGAUCACCCAUGUCCUCUUUUGCUCGUCUUGU [Sensor 3 - 35] (puzzle: Sensor v3, turn-off variant 2)	34	–	–	apparent KD of MS2 coat protein [3]: 94.2 nM; apparent KD of MS2 coat protein [4]: 114 nM
GCGGACAAGAUCGCGAGAUCAGAGACAUGAGGAUCACCCAUGUAGGAUAUCGAUUCGAAACGAAUCGAGAAGGGCAUAGUCCGC [JL denovo 5] (Eterna round: R96, puzzle: Exclusion NG 3)	–	17.3	19.4	apparent KD of MS2 coat protein [2]: 11.6 nM
GGAAAAAAAGUGAGGAUAUCCGGAGGGAAACCUCCGGAGAAGGCACAUGAGGAUCACCCAUGUAAAAAAAAAAA [AK-MS2ROC-r4-Bmoexclusion4-1] (Eterna round: R97, puzzle: Brourd's mod of Exclusion 4)	–	59.9	30.5	–
ACAUGACUGCUAGGAUAUAGAUGACAUGAGGAUCACCCAUGUUAUCCCAUGUUGAUGGAAACCGACUAGAAGGAGCAGCAUAUG [Ex NG2 #10] (Eterna round: R96, puzzle: Exclusion NG 2)	–	53.4	33	apparent KD of MS2 coat protein [2]: 24.3 nM
CUUAGCGUAGGAUAUUAGUACAUGAACAUGAGGAUCACCCAUGUGAGGUGGGUCUUAGAUUAAGAAGGGCGAAGAA [EX5 #32] (Eterna round: R97, puzzle: Exclusion 5)	–	221	249	–
AUCGUGCAGCUUUGCUGUACGAGUACAUGAGGAUCACCCAUGUAGGAUAUGGUACGCUUUGCGUGCUAGAAGGAUAUGCGAUUU [EX ENG3 1.47] (Eterna round: R96, puzzle: Exclusion NG 3)	–	31.4	34.6	apparent KD of MS2 coat protein [2]: 23.9 nM
CUUUAACAAGCGAGAUCCAACAUGAGGAUCACCCAUGUGCAUCCACGAUUAGUGGGUGCGAAAGCUCGUCUUAUAUG [v1] (Eterna round: R97, puzzle: Sensor, turn-off variant 1)	–	20.9	21.6	–
CGCUGGACAGGAUAUGUUCUUGGGCACUUGAGGAUCACCCAAGUCAUCAAAAACUCAGGCACAGAAGGGUUUAUGG [salish99_ex5_r4_019] (Eterna round: R97, puzzle: Exclusion 5)	–	76	176	–

Sequence	apparent KD of MS2 coat protein [1] [nM]	apparent KD of MS2 coat protein (input ligand: FMN 200 uM) [nM]	apparent KD of MS2 coat protein (input ligand: none) [nM]	further results
GAUUAUGCGAGCUUUAGGGACAUGAGGAUCACCCAUGUUCGUCUUGUUGAUCUAGGUACGCUGACAUACCUAAAUCU [JMF 99] (puzzle: Sensor v3, turn-off variant 1)	25.6	–	–	apparent KD of MS2 coat protein [3]: 19.6 nM; apparent KD of MS2 coat protein [4]: 19.7 nM
ACGUGAUAUCUGUCGGUGGACAUGAGGAUCACCCAUGUAAGCUUUUUGCUCAUCUUAUAACCCGGUGACAGACCUUC [Zaisbela] (puzzle: Sensor v3, turn-off variant 1)	413	–	–	apparent KD of MS2 coat protein [3]: 26.8 nM; apparent KD of MS2 coat protein [4]: 29.5 nM
CCUUGGUGAGGAUAUUGAAAAUCUGUCAUAUGCCGACAACUCAAGAAGGUACAUGAGGAUCACCCAUGUUGGGC [Eternabot (Original) Solution 18] (Eterna round: R97, puzzle: Exclusion 4)	–	107	102	–
UAAAACGGAGGAUAUACUGACCCUCAAAACAGACGCGCUGGACAUGAGGAUCACCCAUGUAGAAGGCCGAAUGC [Titeustele] (puzzle: Exclusion 2)	21.7	–	–	–
GCGCACCUACCAAAAGGUAGGCUAACAUGAGGAUCACCCAUGUAGGAUAUCGAUUGCUUUGCAGUCGAGAAGGACAUGAUGCGC [JL ENG3 3.80 Mod 11] (Eterna round: R96, puzzle: Exclusion NG 3)	–	73.2	30	apparent KD of MS2 coat protein [2]: 21.4 nM
CUCGUGUGAGGAUAUCCUCUUAUAUAACAAAGGUUGAAGCAGGAGAAGGCACAUGAGGAUCACCCAUGUGCAUA [EX4 C.6] (Eterna round: R97, puzzle: Exclusion 4)	–	46.4	16.9	–
AAUGUCUGAGGAUAUCGUUUUUUGUACAUGAGGAUCACCCAUGUUUUAUUUUGUAUAUUACGAGAAGGCAGUGGAA [JR_E5_Sub088] (puzzle: Exclusion 5)	22.7	–	–	–
CCAUCACAUGAGGAUCACCCAUGUUAGGAUAUCGUGCUGAUACCAUGUAUUGAAGUAGCGAGAAGGAGCGUUGG [Eternabot (L1) Solution 53] (Eterna round: R97, puzzle: Exclusion 1)	–	83.6	48	–
ACGGCGGCUCUAGGAUAUGACGACAUGAGGAUCACCCAUGUAGCCUUAGCCUUCACGAAAAUCGAUCAGAAGGAGAGCUCCAGG [Eternabot solution 19] (Eterna round: R96, puzzle: Exclusion NG 2)	–	13.5	17.6	apparent KD of MS2 coat protein [2]: 10.9 nM
AGGUAACAUGAGGAUCACCCAUGUCAGGAUAUCAGGAAGAUUAGAAUAGAGUAGAGGAUGAGAAGGGACUAUAU [Excluse me! 18- Jieux - Exclusion 1] (Eterna round: R96, puzzle: Exclusion 1)	–	–	–	apparent KD of MS2 coat protein [2]: 24.7 nM
GGCCGGGCAGGAUAUGCGUGGGUCCUCAUGAGGACCCACGUACAUGAGGAUCACCCAUGUAGAAGGGCCCGGCC (Eterna round: R97, puzzle: Exclusion 2)	–	17.6	14.2	–
GGUUAUUGCAAGGAUAUGCUUUUUUUUUAUAUUGCAGAAGGUGCAACAUGAGGAUCACCCAUGUUGGAGGGAUU [JR_E6_Sub021] (puzzle: Exclusion 6)	28.9	–	–	–
AAUAACAGAGGAUAUACUAUUUUAUGUGUUUAUUGUUUUAAACAUGAGGAUCACCCAUGUAGAAGGCUGAAUGA [JMF 59] (puzzle: Exclusion 2)	34.4	–	–	–
GUGAAGUAAGGAUAUAGUGGAAAAGAUAAGGUAUGAGAGUUCUAGAAGGUACAUGAGGAUCACCCAUGUUAGGG [JR_Exclu4_Sub085] (puzzle: Exclusion 4)	267	–	–	–
GCAUCACAUGUCAGGAUAUGCUGUACCUUGGUACAGCAGAAGGGACAUGAGGAUCACCCAUGUGCCUAUGAUGC [JL-BMX4-4.11] (Eterna round: R97, puzzle: Brourd's mod of Exclusion 4)	–	555	59.3	–
GAAGAAGAGAGAAUAGAAAACAUGAGGAUCACCCAUGUGAGAAGAUGAGGGUGUAGCAGGCUUUUUGCUCGUCUUAU (puzzle: Sensor v3, turn-off variant 1)	119	–	–	apparent KD of MS2 coat protein [3]: 32.5 nM; apparent KD of MS2 coat protein [4]: 31.2 nM
AUUUAGAGAGGAUAUAUAAUGUGAAACAUGAGGAUCACCCAUGUAAUAUUAUGGAUGUAAAUAGAAGGCUCAUUUA [Mat - Exclusion 5 - JL mod - D5] (puzzle: Exclusion 5)	30.2	–	–	–
GCGCAGUCAGGAUAUGCCGGAUAGGAUCACCCUGUCCAAAGGCAGAAGGGACAUGAGGAUCACCCAUGUGGCGC [e4e Mirror Pins] (puzzle: Exclusion 4)	17.7	–	–	apparent KD of MS2 coat protein [3]: 22.2 nM; apparent KD of MS2 coat protein [4]: 16.8 nM
